Substrate in series [1]: C[C@]12CC[C@@H]3c4ccc(O)cc4CC[C@H]3[C@@H]1CC[C@@H]2O[C@@H]1O[C@H](C(=O)O)[C@@H](O)[C@H](O)[C@H]1O
In words: (§1) TP_TRANSPORTER: uptake in Xenopus laevis oocytes. In kind it is functional, cell-based, Oocyte.

Substrate in series [2]: [H][C@@]12CC=C3C[C@@H](OS(=O)(=O)O)CC[C@]3(C)[C@@]1([H])CC[C@]1(C)C(=O)CC[C@@]21[H]
The series is described as §1. It is filed as functional, cell-based, Oocyte.

The term Km denotes the concentration of substrate that gives half-maximal velocity.

B1: Solute carrier organic anion transporter family member 1A1 (Mus musculus) (protein)
chain: MEETEKKVATQEGRFFSKMKVFLMSLTCAYLAKSLSGVYMNSMLTQIERQFGIPTSVVGFITGSFEIGNLLLIVFVSYFGRKLHRPIIIGVGCVVMGLGCFLMASPHFLMGRYKYETTISPTSNLSSNSFLCIENRTQTLKPTQDPTECVKEIKSLMWIYVLIGNTMRGIGETPIMPLGISYIEDFAKSENSPLYIGILEMGKIVGPIIGLLLGSFFARVYVDIGSVNTDDLTITPTDTRWVGAWWIGFLVCAGVNILTSIPFFFFPKTLPKKELQDNVDVTKYEKVEKHRERAKKENLGITKDFLPFMKSLCCNPIYMLFSLTSVLQINGFASTFTFLPKYLEQQYGKSTSEAVFLIGVYSLPPVCLGYLISGFIMKKFKITVKKAAYIAFGLSLSEYFIFLCNYLLTCDNFPVAGLTTSYKGVQHPLYGEKNVLADCNTRCSCLTDTWDPVCGDNGLAYMSACLAGCEKSVGTGTNMVFQNCSCIGSSGNSSAVLGLCKKGPECDNKLQYFLIKSVFSSFIFSLAAIPGYMVLLRCVKSEEKSIGVGLHAFFIRLLAGIPAPVYFGALIDRTCLHWGTLKCGQPGACRMYDINRFRHIYLGLPAAVRGSSFLPAVFILILMRKFHFPGDIHSPDTELAEMKLTEKESECTDVCRSPKVENDGELKTKL
Consider B1, for which the Km in series [1] and in series [2] was 8.2 µM in each case.
